A protein production outcome set (Wang et al. 2014)

Test: label from the status in PepcDB records
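Note: failed if final PepcDB status was selected cloned or expressed and not failed if soluble or beyond.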

Sequence | protein production
MRFLSLVGNSFGCSASGERLVSAARDGDLQEAKALLDYNPRLARYSTFGVRNSPLHYSAAQGHHEIVSLLVESGVDINLRNYRGQTALMQACQHGHWEVVLILILFGANIHRSDYLNGGTALHLAALNGHPRCIRILLSEYIPSVPNCWSLLKNKKTSVAGFDSSVLHEVINRAADGGITPLHVAALNGHIETVQLLLDLGASVTQVTVEDGTTIDLIGAGSTALHYASCGGNTQCCQLLISKGACLAAVNSNGWTPMMVARSWHRNWLEEILNPTTEQPQLHLPNVPSPFLCLPLMSIVNIAQECGWRENDCLTPCRDPCAVCLERKCTVAADGCAHEFCTNCALYLSTTSITSSKTSNVTPGSVPCPLCRNGIVSFTKLPHTTATTRTSTSSRTSISLSFCTCSSDVLDTALLTNPHYSCKPVVSRTGSRTPQSARSSAFRSLSCRRFPPSLCLGGSDVDEPRSRLIGGSYSRSGVGFRRSTSQVEGKRSWFSALNHCVTTGGSAC | failed
MSVWRRRAEGREPTQAQRLFRGLVREWLWVSLILLPLTAVLSLSHGLALNNLFYDNLRRFTPLPVDPRILLVTIDDYSLQQLGRWPWPRAIHGQLLDRLSAAEAKGVLFDVILSEPGSTVENDTRLAAALCRAGNVFLPVLRQGVARYGQDIEEIPPVPLLRNCARGLGHINAEADADGTVRSVYLREGPMLAPRAQLTWLLYQLTEAEPAFPHMPGPGEPRVAQGWLRSNPVRIPFISADAGFPSVPYVSVLRGEVPPELLRDRLILVGSTAPGLGDRYVTPQSGSQGTTPGVEIQANLLNGLLQHRSVVALGQWSGMLLSMALTAVLLGLLLWRPRHALWITLGCMGLGLAGSVLMLRLGYWWSPVASLLGMLLAYLIWNWRRLSVILAYFGWELARLDSEPKVLPERRRSQAPAGDVLQGQIVALEQALSRTRDTRRFIADGLEYLPVATLISDPDGKILLANRNAREVFAHSLVGEGLIAQLAALGYPGLTEPALYPRLEQLPAVEFRDVQQRSLRMELAPLLPVDSDTAIGWLLSLTDLSVERDAEQQRSVLLRFLSHDLRAPHSAILALLDVQRHQPATPRQVYGQIEQQVRRALALTEAFVQLAKAESEAYQFEPSMFAMLVLDAFDQATTLAQLKDIHLEHDLDDEAEGLVLADQSLLTRALFNLLENAIKYSPVESRVSVRVSCTPGWLRCEISDEGRGIDAADLPQLFGQYQRFASAKGIDGLGLGLSMVKAVVDRHQGRISCQSVVGRGSCFILELPLLEE | failed
MRSNHLPCWHTGPLSTLNVRPHLARAWHPLVCIYQRCLATALPTAPAVDSYCISTEIPYYDLVGRLGGKGPSKQTFTMQMLFHKKQRTPLGFCDGLDNVFVGFGSKDEKGCRPPKYHASYAPYYPIHKAASMGDVNTVKSFVERGVFAMEQTDWKYRTALHFACVYGHPEVVTLLVESSCEISPKDIKDATPLIKASQCRQTECLNILLKHGADPNIMDCSDNTALHYAVYNGDIETATKLLEYKANIEAINENKITPLLLALKQNKEKMAEFLIHNGANAKTCDFLGRSSLMYAVRCGSELIIKLLLQRDIDTFKQDVFGWTAKRYAVESKSRVRKLLIDYDEEELRQRCSVPKLSSSSLKELCLDSHYDRNTNISNTGKTREKFSQCTLWEEEHPILPTVKVKDSPRSEAVEKAEARPSKSESNEEDTCTTPTLPTTKVKDPSQSEAVEKAEARPSKSGKLTV | failed
MAYDSRLPEQRDPATDPSANYDYQGDSVNRPDLVSALEQRVDGDVRFDTYTRELFATDASAYEQLPIGVVSPVSTEDVVAVMEYCAAEDIPVLPRGGGTSLAGQAVNEAVVLDFKRYMDE | not failed
MVLETPVCSPIDKESSSDDVQLNKPPKKKRKLDVVYPPRDNTSSSSDVKPKVPGYCGVKAIGCNRSDELLAEVALHSYNSQTGTNLELMTVTQVMLQSVAHINYHMILDAFDPANNSLSSIEICLWDAAVKNNEKLRLVTTFCSLEGSGDKGSQWDPNGVDVLYTGVMPKWLDDGALSGSEKLHYYEVNDSDLQENKWLHLYAQVGAYSKWDLGMVKHFPLEIKKVVVQTMEDDIESNLKLKSSNAIFYITFTTSGGVECACIIRQTRNGRPQHMCLEINNVEMDK | failed
VDIVVIGAGFTGLSTAYHIRKTDSSASVVVLEGECVAFGASGRTSGWVVPIPVLDPATARTLYGKERLTELQNFAWDGLDYVRDLISRENMDSDFEVPGVTFTTLKGHEKRLETFIKYWKDQPRSSDSIIMDKATVSNALNSDAFSGGCRMLHSGQVNPVKHSRELKRIAQEAGAQIFEQTPVLDIEDHGTYFILKTPEGQVRTKHIVLGTNGFTHLLPATLGLRRAQLPMFVYQLMTEPLSEADWKALGWKHRAQFYDKTTYCPPTCRTTVDGRLQFNLCDVYLGTGRSMDEAQRMQFYDAAERMYKKMFPAFKNLRVAQRWSGACSISFDVRPQVGTLHDGRISYGYGYSGAGVMMSQNFGRILADLALQRKTELTE | failed
MTISNKTLTAAAAGLAAVLAVLLVPALAGQSAHTGHTMPAHTPPAQTAPAAQKAGAQALPVTVQGATVAAVPPSIRDTAAYMTLTNKSDQPIKLVGAATPLATSPMLMTTTHSGGMAGMKMVPWLTIPARGTLTLQRDGDHVMLMGLKRPLKVGETVNITLKATDGRTLNVAATVKKN | not failed
MPAFSTRHLGAVAAALALTVASPAATASAAPDAPAGLREVMFVGNNWDGTADVIRSTGDFARIGRIDVVPDKAERMAEINADPIKWIYFQAIRNGVGEGHDQLVDDMYSTPDGTSVVVSRPSFADVVSVDLATGDINWRFPVSGYRSDHMAVSPDGTRVAVSASTSNTVHVLDIRTGEQVGSFGTGDKPHENIFTRDGRYIWNMSIGDVNTALDAPWLDWTKGDRRITVVDAKTYRQVKVIDMRQRLDAIGLGDHSDAVRPAVFSPDESKLYFQVSFFNGFFEYDVAGDRITRTKTLPKNPATSEDRTTWVNDSRHHGLSMSPDGARICVAGTMDDYATVVNRDTLEEGPLVPAAKPYWATVSGDGTHCVVSESGADQVTAIDFATGEKSVSVPVGDHPQRVRIGRVAADWTGPSAG | failed
MKQPATPNAAEETKSEQKQKSKKFPTPTELISHYQKRGLEPAEASIKVIEDLQNALVRVVSSSRNASSKDKLVTDARKIDAINGRLAVVDAKLETKPGYVETFALGLASGATLNGISAVWPHVTRGIGQIWSAVRIGTDPSSTS | failed
MDKNILAIIFVAVGTYLIRYIPIHLHSKIKNIDEKVKEINEILIYSSTSVISALFITSFIKFPIIFSNVLISTISLIFAIVSYKKWNNLGISILISVVIYYLASKFLISI | failed
MWKPLLIAVGLLSLVCGAIGVVLPVIPTTPFLLLSAFCFTRSSERLHNYLVSHRIFGEYISNYYNHAMTPQHKFRTLLTLWCGIILSCFLIGATIPWIILPLIATGVSIHIIRLKPRPEATPTASSPEADSGSEPHFADDHKA | failed
MESADSGRSDPVKGDDPGPSFVSSPPATPSRYESQKRRDWNTFLQYLKNHKPPLALSRCSGAHVIEFLKYLDQFGKTKVHVAACPYFGHQQPPSPCSCPLKQAWGSLDALIGRLRAAYEENGGRPDSNPFAARAVRIYLREVRESQAKARGIPYEKKKRKRPPTVTTVRVDVASSRQSDGDPCNVGAPSVAEAVPP | failed
SNAMNVPFWTEEHVRATLPERDAESHKGTYGTALLLAGSDDMPGAALLAGLGAMRSGLGKLVIGTSENVIPLIVPVLPEATYWRDGWKKAADAQLEETYRAIAIGPGLPQTESVQQAVDHVLTADCPVILDAGALAKRTYPKREGPVILTPHPGEFFRMTGVPVNELQKKRAEYAKEWAAQLQTVIVLKGNQTVIAFPDGDCWLNPTGNGALAKGGTGDTLTGMILGMLCCHEDPKHAVLNAVYLHGACAELWTDEHSAHTLLAHELSDILPRVWKRFE | not failed
MTQIIKIDPLNPEIDKIKIAADVIRNGGTVAFPTETVYGLGANAFDGNACLKIFQAKNRPVDNPLIVHIADFNQLFEVAKDIPDKVLEIAQIVWPGPLTFVLKKTERVPKEVTAGLDTVAVRMPAHPIALQLIRESGVPIAAPSANLATRPSPTKAEDVIVDLNGRVDVIIDGGHTFFGVESTIINVTVEPPVLLRPGPFTIEELKKLFGEIVIPEFAQGKKEAEIALAPGMKYKHYAPNTRLLLVENRNIFKDVVSLLSKKYKVALLIPKELSKEFEGLQQIILGSDENLYEVARNLFDSFRELDKLNVDLGIMIGFPERGIGFAIMNRARKASGFSIIKAISDVYKYVNI | not failed
MEASRFIEIGLLTRPHGLKGEVCVDYYADSPFLLEGTVYLKAGRAAPRPVKVQSMRMHKGRPLVIFEGVNDRTAAELLRGHVMLVPEDTLPELDEDEVYLFELEGISVVIDESGEHLGVIERIDTDAYQEIWVIRTPQGKEVLFPAAAPFVLDIDLDSRTARIAPPPGLLDIYLSD | failed
MGAGSQTTGAGQKKVQTITVGTGTQFPNICFIDEKGDLTGYDVELIKELDKRLPHYKFTFKTMEFSNLLVSLGQHKVDIVAHQMEKSKEREKKFLFNKVAYNHFPLKITVLQNNDTIRGIEDLKGKRVITSATSNGALVLKKWNEDNGRPFEIAYEGQGANETANQLKSGRADATISTPFAVDFQNKTSTIKEKTVGNVLSNAKVYFMFNKNEQTLSDDIDKALQEIIDDGTLKRLSLKWLGDDYSKEQYLEHHHHHH | not failed
IDGIFIMDAEGHYLDVNPAICSAIGYTRDEFLALDWGVLSRGVDSGWAAASLARIVGGEPLREERTVWTRNGDQLTVELSAHLLPD | failed
SAKDPLAEAGLHFDELNKLRVLEPDVSQKTTELKEECEEFVDKIGQFQKIVGGLIELVDELAKEAETEKMKAIGARNLLKSVEKQREAQHQQLQALIAEKKMQLERYRIEYEALQKVEAEQSEFIDQFILQK | failed
MVRLIKTETVISVLMGHFIKKLLFILLFVGVLIAPANAQNEKNMYSYKKIGNKYIVSINNHTEIVKALNAFCKEKGILSGSINGIGAIGELTLRFFNPKTKAYDDKTFREQMEISNLTGNISSMNEQVYLHLHITVGRSDYSALAGHLLSAIQNGAGEFVVEDYSERISRTYNPDLGLNIYDFERLEHHHHHH | failed
MAQAPDSSVPVRMVVDLTVDDYAAFTAYAYQRPALRRRRHASHLRFAVLLAAGLLAVILLRVWDGRQLDWGAALPAYAQALVVGLAVFALLAVGYEYALPRLARGNVRRALGRQPDNPFLGRHTLDFGPRGVDDAAAGASGTMPWEAVGQVEETASHLYLFISPLQGVIIPKRGQSADVLQAVRAQLRAHVPGAALADAADKQ | failed
SNGTPLMTPTELIERQASGEQLQIIDTRSKKQYEISCVKGAIHIPLAEIRDRVAELDKNVTTITYCNKGVTGNAAQNILLNEGFKEVYNLSGGNKNY | failed
MSMKGKETMSNEKIVVGKFGATYGIRGWLKVFSYTDNAESIFDYSPWYINQKGKWVEYKVESWKRHNKGMVAKLEGMDVREDAHLMTNFEIAIDPAVLPELSEDEFYWRELFGMHVVTTKGYDLGVVTDMLETGSNDVLVVKANLKDAFGQKERLIPFLEEQVIIKVDREAQRIEVDWDPGFLEHHHHHH | not failed
MNQLTQYTITEQEINQSLAKHNNFSKDIGLPGVADAHIVLTNLTSQIGREEPNKVTLTGDANLDMNSLFGSQKATMKLKLKALPVFDKEKGAIFLKEMEVVDATVQPEKMQTVMQTLLPYLNQALRNYFNQQPAYVLREDGSQGEAMAKKLAKGIEVKPGEIVIPFTDLEHHHHHH | not failed
MTERLLVGVIVGSHGVRGLVRVKSFTQDEMALCDYGPLSDETGTRRFAVEVRNQAKGVVICQIPGVSDRTAADALKGTRLFLDRAALPADALEEDEYYHADLIGLPVDLVDGGRLGVVHSVHDFGAGDMLEVTLAQGRRSVLLPFTKAVVPLVDVKAGRLVADPPLGLLDDTRPPAGVEGEVEEDPGVGIDEDGDGKGGASLEHHHHHH | not failed
